Results on eight molecules are retold here after patent publication US20230226096A1 (Orna Therapeutics, Inc., priority 2020, published 2023).

B1: Picornavirales sp. isolate RtMruf-PicoV (nucleic acid)
DNA: TTTGCTCAGCGTAACTTCTCCGGGTTACGTGGAGACCAAAAGGCTACGGAGACTCGGGCTACGGCCCTGGAGCACCTAGGTGCTCCTAAAGACGTTAGAAGTTGTACAAACTCGCCCAATAGGGCCCCCCAACCAGGGGGGTAGCGGGCAAGCACTTCTGTTTCCCCGGTATGATCTCATAGGCTGTACCCACGGCTGAAAGAGAGATTATCGTTACCCGCCTCACTACTTCGAGAAGCCCAGTAATGGTTCATGAAGTTGATCTCGTTGACCCGGTGTTTCCCCCACACCAGAAACCTGTGATGGGGGTGGTCATCCCGGTCATGGCGACATGACGGACCTCCCCGCGCCGGCACAGGGCCTCTTCGGAGGACGAGTGACATGGATTCAACCGTGAAGAGCCTATTGAGCTAGTGTTGATTCCTCCGCCCCCGTGAATGCGGCTAATCCCAACTCCGGAGCAGGCGGGCCCAAACCAGGGTCTGGCCTGTCGTAACGCGAAAGTCTGGAGCGGAACCGACTACTTTCGGGAAGGCGTGTTTCCTTTTGTTCCTTTTATCAAGTTTTATGGTGACAACTCCTGGTAGACGTTTTATTGCGTTTATTGAGAGATTTCCAACAATTGAACAGACTAGAACCACTTGTTTTATCAAACCCTCACAGAATAAGATAACA
B2: Bat picornavirus isolate BtRs-PicoV (nucleic acid)
DNA: TTTCAAAAGGCCCTGGGCATACGGCGTTATTCGTAACGTCGTATGTCCAGGGCGGTAGCATCAGGCCAAGGCCTGATGCTACCACGTGTGGACTAAACCACACACTCTTCTTGTGACACGTTGTGTCACCTATCCCTTTCTTGGTAACTTAGAAGCTTGTACACTTACGCACGTAGGTGCCCCACATCCAGTGGGGTTTGTGCAAAGCAATCTTGTTCCCCGGTAAACCCTGATAGGCTGTAACCACGGCCGAAACAAGGTTTGTCGTTACCCGACTCACTACTACACAAAGCCTAGTAAAGTTCAATGAAAGTGCGCAGCGTGATCCGGTCAAAACCCCCTTGACCAGAAACACATGATGAGGGTCACCAACCCCCACTGGCGACAGTGTGGTGTCCCTGCGTTGGCATGTGGCCTCGTAGAGGCGTTGCAATCTGGATTTGCTCCGAAGAGCCCCGTGTGCTAGTGTTTATACCTCCGGCCCCTTGAATGCGGCTAATCCTAACCCCCGAGCATGTACACACAAGCCAGTGTGTAGCATGTCGTAATGAGCAATTTGGGGATGGAACCGACTACTTTAGGGTGTCCGTGTTTCTCATTATTCTTTGTTTGATGTTTT
B3: Niviventer confucianus picornavirus (nucleic acid)
DNA: CCCTTTCATAACCCCCCCCTTTTAACCCAACCCTTCGTAACCGTACGCTTCACTCGCCTTTGGGTATAGCGGCCCAATGTGCTGAAGAAAAGGATACGCTATAAGGGGCCAACGGGTGGTGGCCCTTAAGACCACCCAACCTAGAAGCTTGTACACTCGGGCAATAGTGAGGCCCACATCCAGTGGGTCAAGCCCAAAGCATTCTTGTTCCCCGGTATGATCTCATAAGCTGTACCCACGGCTGAAAGAGTGATTATCGTTATCCCACTCAGTACTTCGGAGAGCCTAGTACACCACTTGGAAATGGAAGTCTGTGATCCGGGGTTGACCCTGAACCCCAGAAACTCATGATGAGGCTAACCTTCCCGAACACGGCGACGTGTGGTTAGCCTGCGCTGGCATGAGGCCTCTTTGTAGGCAGACTGAAATGGAAGGGTGACGAAGAGCCGACTGAGCTACTGTTTTATTCCTCCGGCCCCCTGAATGCGGCTAATCCTAACTCCTGGTCCAGTACTTGTAACCCAACAGGTGGCTGGTCGTAATGCGTAAGCCGGGAGCGGAACCGACTACTTTGGGGCGTCCGTGTTTCTCAATATTATTCATTTCTAGCTTATGGTGACAATTTATGATTGCAGAGATTGTGCTGTATTTGTGTCTGAGAGAAGAAGTAACAAT
B4: Caprine Kobuvirus d50 (nucleic acid, listed as Kobuvirus sp.)
DNA: CCGGGCCACCGATACTTCCCTTCACTCCTTCGGGACTGTTGGGGAGGAACACAACAGGGCTCCCCTGTTTTCCCATTCCTTCCCCCTTTTCCCAACCCCAACCGCCGTATCTGGTGGCGGCAAGACACACGGGTCTTTCCCTCTAAAGCACAATTGTGTGTGTGTCCCAGGTCCTCCTGCGTACGGTGCGGGAGTGCTCCCACCCAACTGTTGTAAGCCTGTCCAACGCGTCGTCCTGGCAAGACTATGACGTCGCATGTTCCGCTGCGGATGCCGACCGGGTAACCGGTTCCCCAGTGTGTGTAGTGCGATCTTCCAGGTCCTCCTGGTTGGCGTTGTCCAGAAACTGCTTCAGGTAAGTGGGGTGTGCCCAATCCCTACAAAGGTTGATTCTTTCACCACCTTAGGAATGCTCCGGAGGTACCCCAGCAACAGCTGGGATCTGACCGGAGGCTAATTGTCTACGGGTGGTGTTTCCTTTTTCTTTTCACACAACTCTACTGCTGACAACTCACTGACTATCCACTTGCTCTCTTGTGCCTTTCTGCTCTGGTTCAAGTTCCTTGATTGTTTTTGACTGCTTTTCACTGCTTTTCTTCTCACAATCCTTGCTCAGTTCAAAGTC
B5: Aichivirus KVGH (nucleic acid, listed as Aichivirus sp.)
DNA: TACTCCATTCAGCTTCTTCGGAACCTGTTCGGAGGAATTAAACGGGCACCCATACTCCCCCCCACCCCCCTTTTGTAACTAAGTATGTGTGCTCGTGACCTTGACTCCCACGGAACGGACCGATCCGTTGGTGAACAAACAGCTAGGTCCACATCCTCCTTTCCCCTGGGAGGGTCCCCGCCCTCCCACATCCCCCCCCCAGCCTGACGTGTCACAGGCTGTGTGAAGCCCCCGCGAAAGCTGCTCACGTGGCAATTGTGGGTCCCCCCTTCATCAAGACACCAGGTCTTTCCTCCTTAAGGCTAGCCCCGGCGTGTGAACTCACGTTGGGCAACTAGTGGTGTCACTGTGCGCTCCCAATCTCGGCCGCGGAGTGCTGTTCCCCAAGCCAAACCCCTGGCCCTTCACTATGTGCCTGGCAAGCACACCTGAGAAGGTGTTCCGCTGTGGCTGCCAGCCTGGTAACAGGTGCCCCAGTGTGCGTAACCTTCTTCCGTCTTCGGACGGTGGTGATTGGTTAAGATTTGGTGTAAGGTTCATGTGCCAACGCCCTGTGCGGGATGAAACCTCTACTGCCCTAGGAATGCCAGGCAGGTACCCCACCTTCGGGTGGGATCTGAGCCTGGGCTAATTGTCTACGGGTGGTTTCATTTCCAATTCTTTCATGTCGGAGTC
B6: Human enterovirus C105 (nucleic acid, listed as Enterovirus sp.)
DNA: CCCCTAGGATCCACTGGATGTCAGTACACTGGTATCGTGGTACCTTTGTACGCCTGTTTTATACCCCCTTCCCCGCAACTTTAGAAGCATCAAAAGCACCGCTCAATAGTCACCACACCCCCAGTGTGGTTTCGAGCAAGCACTTCTGTTTTCCCGGTTGCGTCCCATATGCTGTGCAAACGGCAAAAAGGGACAATATCGTTACCCGCTTGTATACTACGGGAAACCTAGTACCACCATTGATTGTGTTGAGAGTTGCGCTCATCACCTTTCCCCGGTGTAGCTCAGGCCGATGAGGCTCAGAATCCCCCACAGGTGACTGTGTCTGAGCCTGCGTTGGCGGCCTGCCCTCGCCTTATGGCGTGGGACGCTTGATACATGACATGGTGCGAAGAGTCTACTGTGCTATGCAAGAGTCCTCCGGCCCCTGAATGTGGCTAATCCTAACCACTGATCCCACGCACGCAAACCAGTGTGTAGTGGGTCGTAACGCGCAAGTCGGTGGCGGAACCAACTACTTTGGGTGACCGTGTTTCCTTTATTACTTATTGAATGTTTATGGTGACAATTGTTTGATTCAGTTGTTGCCATTCTCTACATTCATTTACCCAGCATCAAACCAATTGAACTGTTACA
B7: Apodemus agrarius picornavirus strain Longquan-Aa118 (nucleic acid)
DNA: TTACTCAGCGTAACTACTCCGGGTTACGTGATGAAGAAGAGGCTACGGAGATTCTCGGGCTACGGCCCTGGAGCCACTCCGGCTCCTAAAGATTTAGAAGTTTGAGCACACCCGCCCACTAGGGCCCCCCATCCAGGGGGGCAACGGGCAAGCACTTCTGTTTCCCCGGTATGATCTGATAGGCTGTAACCACGGCTGAAACAGAGATTATCGTTATCCGCTTCACTACTTCGAGAAGCCTAGTAATGATGGGTGAAATTGAATCCGTTGATCCGGTGTCTCCCCCACACCAGAAACTCATGATGAGGGTTGCCATCCCGGCTACGGCGACGTAGCGGGCATCCCTGCGCTGGCATGAGGCCTCTTAGGAGGACGGATGATATGGATCTTGTCGTGAAGAGCCTATTGAGCTAGTGTCGACTCCTCCGCCCCCGTGAATGCGGCTAATCCTAACCCCGGAGCAGGTGGGTCCAATCCAGGGCCTGGCCTGTCGTAATGCGTAAGTCTGGGACGGAACCGACTACTTTCGGGAAGGCGTGTTTCCATTTGTTCATTATTTGTGTGTTTATGGTGACAACTCTGGGTAAACGTTCTATTGCGTTTATTGAGAGATTCCCAACAATTGAACAAACGAGAACTACCTGTTTTATTAAATTTACACAGAGAAGAATTACA
B8: Rhinolophus picornavirus strain Henan-Rf265 (nucleic acid)
DNA: CGGAACGTTGTATGCTCAGGGCGTAGGCACCACCCACGGGTGGTGCCTACACGTGTGGACTAAACCACACACTCTTTTCAGCACTTAGTGCTGCTATCTCTTTTTGTAACTTAGAAGTTTGTACACAATGCGTTAGGGCCACACATCCAGTGTGGTATCGCAAAGCACTTCTGTTTCCCCGGTGCTAGTAGGAGGGTGGCTGCTCCACGGCCACTTGCCGAACCCATCGTTACCCGACTCATTACTTCGCAAAGCCTAGTAACCCAGTTGAAGCAAGCCCGGCGTGTTCCGGTCAGGAAAAACCCCCCCTGGCCAGAAACATGTGATGAGGGTGGGCTATCCCCACTGGTGACAGTGAGCCCTCCCTGCGTTGGCACATGGCCCGATCTGGGCGTGGTTCTTGTGGATGCTGCCGAAGAGCCCCGTGAGCTAGTGTTTATACCGCCGGCCTCGTGAATGCGGCTAACCCTAACCCCGGAGCAGAGGCTACTGAAGCCACAGTAGTCGCTGTCGTAACGAGTAATTCTGGGATGGGACCGACTACTTTCGAGTGTCCGTGTTTCCTTTATTCTTTTATTGTTGTTTATGGTGACAAAC

This data set has as its system HEK293 cells. It is filed as cell-based, human. To be noted: luminescence from secreted Gluc in supernatant 24 hours after transfection of HEK293 cells; circular RNA encoding Gluc with the named IRES (UTR truncated to 675 nt).
Regarding B1, the Expression was 2.26E+08.

Turning to B2, the Expression was determined as 1.13E+06.

B3 gave an Expression of 6.10E+07.

B4: the Expression came out at 9.65E+07.

As to B5, the Expression was 1.72E+07.

Consider B6, for which the Expression is recorded as 5.49E+05.

Regarding B7, the Expression was determined as 1.90E+08.

In the case of B8, the Expression stood at 3.85E+05.
